The text below walks through data of paper PMC3154093 (Science (New York, N.Y.), 2011).

Assay [1] deals with Neurocan-alkaline phosphatase (UniProt P55066 23-1268, chondroitin sulfate glycosaminoglycan chains). As to the kind of experiment: solid-phase binding assay.
For the next assay, the target named is T1, glypican-2-AP (UniProt Q8BKV1 22-556, heparan sulfate glycosaminoglycan chains).
T1 sequence (looked up): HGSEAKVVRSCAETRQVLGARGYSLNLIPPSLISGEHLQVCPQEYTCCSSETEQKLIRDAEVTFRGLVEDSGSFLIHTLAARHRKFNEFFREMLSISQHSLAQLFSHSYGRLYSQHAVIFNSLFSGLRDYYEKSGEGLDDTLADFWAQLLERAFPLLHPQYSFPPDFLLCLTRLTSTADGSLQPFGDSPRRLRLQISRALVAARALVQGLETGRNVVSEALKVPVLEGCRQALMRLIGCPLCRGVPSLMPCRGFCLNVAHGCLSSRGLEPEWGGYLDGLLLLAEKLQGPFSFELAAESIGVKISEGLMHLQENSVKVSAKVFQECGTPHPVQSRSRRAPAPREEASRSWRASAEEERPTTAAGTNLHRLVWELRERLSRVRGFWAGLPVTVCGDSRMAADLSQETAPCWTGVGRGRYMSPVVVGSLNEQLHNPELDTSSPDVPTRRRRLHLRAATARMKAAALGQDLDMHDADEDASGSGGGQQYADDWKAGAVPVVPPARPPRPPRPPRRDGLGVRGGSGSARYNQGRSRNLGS
As to the kind of experiment: solid-phase binding assay.

Neurocan-alkaline phosphatase, sequence (P55066 23-1268): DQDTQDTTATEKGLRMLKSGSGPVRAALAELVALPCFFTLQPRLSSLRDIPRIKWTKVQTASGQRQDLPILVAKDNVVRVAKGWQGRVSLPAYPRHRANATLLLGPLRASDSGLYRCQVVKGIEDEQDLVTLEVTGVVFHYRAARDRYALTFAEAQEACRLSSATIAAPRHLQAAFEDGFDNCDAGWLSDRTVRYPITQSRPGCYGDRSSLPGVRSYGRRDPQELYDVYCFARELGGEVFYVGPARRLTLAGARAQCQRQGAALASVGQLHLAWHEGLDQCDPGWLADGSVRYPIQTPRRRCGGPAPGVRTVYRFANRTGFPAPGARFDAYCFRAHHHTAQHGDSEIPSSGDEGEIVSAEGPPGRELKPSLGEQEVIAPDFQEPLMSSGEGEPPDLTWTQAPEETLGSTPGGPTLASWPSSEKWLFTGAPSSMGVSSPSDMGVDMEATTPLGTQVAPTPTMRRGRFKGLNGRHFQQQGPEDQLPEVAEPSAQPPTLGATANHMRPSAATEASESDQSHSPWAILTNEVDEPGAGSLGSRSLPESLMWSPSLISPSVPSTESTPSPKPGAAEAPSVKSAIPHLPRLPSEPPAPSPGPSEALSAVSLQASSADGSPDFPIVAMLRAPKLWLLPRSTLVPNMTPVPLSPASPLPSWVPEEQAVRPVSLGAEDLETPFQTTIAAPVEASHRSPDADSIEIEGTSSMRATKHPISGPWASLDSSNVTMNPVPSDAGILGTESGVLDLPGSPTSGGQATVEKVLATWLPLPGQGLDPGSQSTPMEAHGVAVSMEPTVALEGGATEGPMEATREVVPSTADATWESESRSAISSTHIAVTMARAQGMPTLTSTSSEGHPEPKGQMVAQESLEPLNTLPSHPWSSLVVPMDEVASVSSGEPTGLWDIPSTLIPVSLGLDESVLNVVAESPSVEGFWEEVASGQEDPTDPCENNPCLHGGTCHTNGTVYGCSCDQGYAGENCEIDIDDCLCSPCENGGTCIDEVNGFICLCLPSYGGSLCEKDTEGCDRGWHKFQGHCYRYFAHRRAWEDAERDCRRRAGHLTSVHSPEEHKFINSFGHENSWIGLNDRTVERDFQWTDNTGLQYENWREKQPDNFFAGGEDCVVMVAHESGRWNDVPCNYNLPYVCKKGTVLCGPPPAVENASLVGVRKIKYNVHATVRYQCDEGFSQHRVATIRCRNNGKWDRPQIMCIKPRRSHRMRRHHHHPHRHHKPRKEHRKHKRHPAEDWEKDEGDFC

B1: mouse RPTPσ sEcto-Fc (Fc fusion)
chain: EEPPRFIREPKDQIGVSGGVASFVCQATGDPKPRVTWNKKGKKVNSQRFETIDFDESSGAVLRIQPLRTPRDENVYECVAQNSVGEITIHAKLTVLREDQLPPGFPNIDMGPQLKVVERTRTATMLCAASGNPDPEITWFKDFLPVDPSASNGRIKQLRSGALQIESSEETDQGKYECVATNSAGVRYSSPANLYVRVRRVAPRFSILPMSHEIMPGGNVNITCVAVGSPMPYVKWMQGAEDLTPEDDMPVGRNVLELTDVKDSANYTCVAMSSLGVIEAVAQITVKSLPKAPGTPVVTENTATSITVTWDSGNPDPVSYYVIEYKSKSQDGPYQIKEDITTTRYSIGGLSPNSEYEIWVSAVNSIGQGPPSESVVTRTGEQAPASAPRNVQARMLSATTMIVQWEEPVEPNGLIRGYRVYYTMEPEHPVGNWQKHNVDDSLLTTVGSLLEDETYTVRVLAFTSVGDGPLSDPIQVKTQQGVPGQPMNLRAEAKSETSIGLSWSAPRQESVIKYELLFREGDRGREVGRTFDPTTAFVVEDLKPNTEYAFRLAARSPQGLGAFTAVVRQRTLQAISPKNFKVKMIMKTSVLLSWEFPDNYNSPTPYKIQYNGLTLDVDGRTTKKLITHLKPHTFYNFVLTNRGSSLGGLQQTVTARTAFNMLSGKPSVAPKPDNDGFIVVYLPDGQSPVTVQNYFIVMVPLRKSRGGQFPVLLGSPEDMDLEELIQDISRLQRRSLRHSRQLEVPRPYIAARFSILPAVFHPGNQKQYGGFDNRGLEPGHRYVLFVLAVLQKNEPTFAASPFSDPFQLDNPDPQPIVDGEEG
Consider B1, for which the values for the Kd (in assay [1]; in the assay with glypican-2-AP) were approximately 21 nM and approximately 10 nM, respectively.

One may read the Kd as the constant that tells how readily two partners part at equilibrium. A high value points to lower affinity.
